In patent US20040265918A1:
Blank lines part the entries; values can stand above or below the substance they belong to.

What was measured:
[1] = target: p29^GFP-labeled vesicles (vesicles carrying a GFP-tagged p29 fusion protein) [GFP: P42212]; assay: competition with native myosin V in the p29^GFP vesicle / F-actin binding assay, 10 nM T4, ~2-3 pmol polypeptide
[2] = target: F-actin (actin cytoskeleton of rat astrocytes, Triton-insoluble fraction) (rat); assay: in vitro actin binding assay, release with 5 mM EGTA
[3] = target: F-actin (actin cytoskeleton of rat astrocytes, Triton-insoluble fraction) (rat); assay: in vitro actin binding assay, Triton fractionation, gamma counting and SDS-PAGE
[4] = target: F-actin (actin cytoskeleton of rat astrocytes, Triton-insoluble fraction) (rat); assay: in vitro actin binding assay (F-lysate plus V-lysate, Triton fractionation, SDS-PAGE)
[5] = target: F-actin (actin cytoskeleton of rat astrocytes, Triton-insoluble fraction) (rat); assay: in vitro actin binding assay, release after 0.1 mM Ca^2+, 1 mM Mg^2+, 0.1 mM ATP
[6] = target: F-actin (actin cytoskeleton of rat astrocytes, Triton-insoluble fraction) (rat); assay: F-lysate plus V-lysate with p29^GFP vesicles, fluorescence of the Triton-insoluble pellet
[7] = target: p29 vesicles (vesicles carrying p29, the substrate binding subunit of type II iodothyronine 5'-deiodinase, D2) (rat) (UniProt Q62876); assay: in vitro actin binding assay, competition with native F-actin-bound myosin V, 10 nM T4

percent of the Ca^2+-stimulated release of p29 from F-actin blocked by EGTA [2]: > 50%
percent of total p29 vesicles bound to F-actin (after 10 nM T4) [3]: 80%
percent of p29 remaining in the non-actin bound, Triton-soluble fraction (10 nM T3) [4]: > 90%
percent of radiolabeled p29 bound to the Triton insoluble, F-actin fraction (10 nM T4) [4]: > 70%
percent of p29 vesicles released from F-actin by Ca^2+, Mg^2+ and ATP [5]: 70%
Substance: p29 vesicles (vesicles carrying p29, the substrate binding subunit of type II iodothyronine 5'-deiodinase, D2) (from UniProt Q62876 1-234)

percent increase in p29^GFP vesicle binding to F-actin at 100 nM T3 [6]: 10 to 20%
Substance: p29^GFP-labeled vesicles (vesicles carrying a GFP-tagged p29 fusion protein) (from UniProt P42212 1-238)

Further lines, the substance ahead of its results:

Substance: ? myosin ^1513 (residues 1513-1852) (from UniProt Q99104 1513-1852)
percent decrease of T4-dependent p29 binding [1]: > 75%

Substance: ? myosin ^1830 (residues 1830-1852) (from UniProt Q99104 1830-1852) (peptide)
percent decrease of T4-dependent p29 binding [1]: > 75%

Substance: ? myosin ^1767 (residues 1767-1852) (from UniProt Q99104 1767-1852)
percent decrease of T4-dependent p29 binding [1]: > 75%

Substance: ? myosin V^tail (entire myosin V tail, residues 953 to 1852) (from UniProt Q99104 953-1852)
percent decrease of p29 binding to F-actin [1]: > 75%
percent of the T4-dependent binding of p29 vesicles to F-actin blocked (5 µl) [7]: 50%
percent of the p29 binding blocked (10 µl) [7]: > 95%
